Measured values reported in US12295987B2, “Method of using a GIP/GLP1 co-agonist for diabetes” (Eli Lilly and Company, priority 2018, dated 2025).

Biological target: T1, human gastric inhibitory peptide receptor (hGIPR) (Homo sapiens, UniProt P48546)
T1 construct: expressed in transfected cells; host or cells: HEK293
T1 sequence (P48546 22-466): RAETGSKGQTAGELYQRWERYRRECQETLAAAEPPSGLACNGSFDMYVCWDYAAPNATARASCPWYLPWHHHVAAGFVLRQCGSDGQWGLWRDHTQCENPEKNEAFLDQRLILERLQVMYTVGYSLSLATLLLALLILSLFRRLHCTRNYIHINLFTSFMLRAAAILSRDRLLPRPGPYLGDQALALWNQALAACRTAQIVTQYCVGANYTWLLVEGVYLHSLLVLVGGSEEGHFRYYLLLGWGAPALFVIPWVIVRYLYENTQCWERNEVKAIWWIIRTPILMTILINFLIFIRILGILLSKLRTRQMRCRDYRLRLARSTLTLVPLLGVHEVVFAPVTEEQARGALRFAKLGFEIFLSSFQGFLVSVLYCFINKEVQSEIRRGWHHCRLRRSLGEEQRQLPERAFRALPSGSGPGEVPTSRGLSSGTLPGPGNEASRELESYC
Assay: cAMP pharmacological functional assay in presence of 0.1% casein, hGIPR
Format: cell-based
Details: ratio of hGIPR to hGLP1R cAMP EC50 ratios
Protocol: Each receptor over-expressing cell line (20 μl) is treated with the test peptide in DMEM (Gibco Cat #31053) supplemented with 0.1% Casein (Sigma Cat #C4765), 250 μM IBMX, 1× GlutaMAX™ (Gibco Cat #35050), and 20 mM HEPES (HyClone Cat #SH30237.01) in a 20 μl assay volume. […] EC50 is the concentration of compound causing half-maximal simulation in a dose response curve. A relative EC50 value is derived by non-linear regression analysis using the percent maximal response vs. the concentration of peptide added, fitted to a four-parameter logistic equation.
Intracellular cAMP levels are determined by extrapolation using a standard curve. Dose response curves of compounds are plotted as the percentage of stimulation normalized to minimum (buffer only) and maximum (maximum concentration of each control ligand) values and analyzed using a four parameter non-linear regression fit with a variable slope (Genedata Screener 13). EC50 is the concentration of compound causing half-maximal simulation in a dose response curve.
EC50 is the concentration of compound causing half-maximal simulation in a dose response curve.

Y-Aib-Aad-GTFTSDYSILLDKK((2-[2-(2-Amino-ethoxy)-ethoxy]-acetyl)2-(γGlu)-CO—(CH2)18—CO2H)AQ-Aib-AFIEYLIEGGPSSGAPPPS-NH2 (YXXGTFTSDYSILLDKKAQXAFIEYLIEGGPSSGAPPPS; Aib, Aad, lipidated Lys, C-terminal amide; (2)..(2) Xaa at position 2 is Aib; (3)..(3) Xaa at position 3 is Aad; MOD_RES (17)..(17) Lys at position 17 is chemically modified by conjugation of the epsilon-amino group of the Lys side chain with (2-[2-(2-amino-ethoxy)-ethoxy]-acetyl)2-(gamma-Glu)-CO-(CH2)18- CO2H; (20)..(20) Xaa at position 20 is Aib; MOD_RES (39)..(39) Ser at position 39 is amidated) [Peptide 89]
[hGIPR/hGLP1R] EC50 Ratio: 8.97

Y-Aib-EGT-αMeF(2F)-TSD-3Pal-SI-αMeL-LDEK((2-[2-(2-Amino-ethoxy)-ethoxy]-acetyl)2-(γGlu)-CO—(CH2)18—CO2H)AQ-Aib-EFIEYLIEGGPSSGAPPPS-NH2 (YXEGTXTSDXSIXLDEKAQXEFIEYLIEGGPSSGAPPPS; Aib, αMeF(2F), 3Pal, αMeL; lipidated K; C-terminal amide; (2)..(2) Xaa at position 2 is Aib; (6)..(6) Xaa at position 6 is alpha-methyl-Phe(2F); (10)..(10) Xaa at position 10 is 3Pal; (13)..(13) Xaa at position 13 is alpha-methyl-Leu; MOD_RES (17)..(17) Lys at position 17 is chemically modified by conjugation of the epsilon-amino group of the Lys side chain with (2-[2-(2-amino-ethoxy)-ethoxy]-acetyl)2-(gamma-Glu)-CO-(CH2)18- CO2H; (20)..(20) Xaa at posit) [Peptide 157]
[hGIPR/hGLP1R] EC50 Ratio: 2.52

Y-Aib-EGT-αMeF(2F)-TSD-4Pal-SI-αMeL-LD-Dab-K((2-[2-(2-Amino-ethoxy)-ethoxy]-acetyl)2-(γGlu)-CO—(CH2)16—CO2H)AQ-Aib-EFI-(D-Glu)-YLIEGGPSSGAPPPS-NH2 (YXEGTXTSDXSIXLDXKAQXEFIXYLIEGGPSSGAPPPS; Aib, 4Pal, Dab, lipidated Lys, D-Glu, C-terminal amide; (2)..(2) Xaa at position 2 is Aib; (6)..(6) Xaa at position 6 is alpha-methyl-Phe(2F); (10)..(10) Xaa at position 10 is 4Pal; (13)..(13) Xaa at position 13 is alpha-methyl-Leu; (16)..(16) Xaa at position 16 is Dab; MOD_RES (17)..(17) Lys at position 17 is chemically modified by conjugation of the epsilon-amino group of the Lys side chain with (2-[2-(2-amino-ethoxy)-ethoxy]-acetyl)2-(gamma-Glu)-CO-) [Peptide 233]
[hGIPR/hGLP1R] EC50 Ratio: 9.25

Y-Aib-EGT-αMeF(2F)-TSD-4Pal-SI-αMeL-LD-Orn-K((2-[2-(2-Amino-ethoxy)-ethoxy]-acetyl)2-(γGlu)-CO—(CH2)16—CO2H)AQ-Aib-EFI-(D-Glu)-αMeY-LIEGG-NH2 (YXEGTXTSDXSIXLDXKAQXEFIXXLIEGG; Aib, αMeF(2F), 4Pal, αMeL, Orn, αMeY, D-Glu; C18 diacid lipidation; amide; (2)..(2) Xaa at position 2 is Aib; (6)..(6) Xaa at position 6 is alpha-methyl-Phe(2F); (10)..(10) Xaa at position 10 is 4Pal; (13)..(13) Xaa at position 13 is alpha-methyl-Leu; (16)..(16) Xaa at position 13 is Orn; MOD_RES (17)..(17) Lys at position 17 is chemically modified by conjugation of the epsilon-amino group of the Lys side chain with (2-[2-(2-amino-ethoxy)-ethoxy]-acetyl)2-(gamma-Glu)-CO-) [Peptide 265]
[hGIPR/hGLP1R] EC50 Ratio: 2.99

Y-Aib-EGT-αMeF(2F)-TSD-4Pal-SI-αMeL-LD-Orn-K((2-[2-(2-Amino-ethoxy)-ethoxy]-acetyl)2-(γGlu)-CO—(CH2)16—CO2H)AQ-Aib-EFI-(D-Glu)-αMeY-LIEGGPSSG-NH2 (YXEGTXTSDXSIXLDXKAQXEFIXXLIEGGPSSG; Aib, αMeF(2F), 4Pal, αMeL, Orn, αMeY, D-Glu; C18 diacid lipidation; amide; (2)..(2) Xaa at position 2 is Aib; (6)..(6) Xaa at position 6 is alpha-methyl-Phe(2F); (10)..(10) Xaa at position 10 is 4Pal; (13)..(13) Xaa at position 13 is alpha-methyl-Leu; (16)..(16) Xaa at position 16 is Orn; MOD_RES (17)..(17) Lys at position 17 is chemically modified by conjugation of the epsilon-amino group of the Lys side chain with (2-[2-(2-amino-ethoxy)-ethoxy]-acetyl)2-(gamma-Glu)-CO-) [Peptide 264]
[hGIPR/hGLP1R] EC50 Ratio: 2.63

Y-Aib-EGT-αMeF(2F)-TSD-4Pal-SI-αMeL-LD-Orn-K((2-[2-(2-Amino-ethoxy)-ethoxy]-acetyl)2-(γGlu)-CO—(CH2)16—CO2H)AQ-Aib-EFI-(D-Glu)-αMeY-LIEGGPSSGAPPPS-NH2 (YXEGTXTSDXSIXLDXKAQXEFIXXLIEGGPSSGAPPPS; Aib, 4Pal, Orn, αMe residues, lipidated Lys, D-Glu, amide; (2)..(2) Xaa at position 2 is Aib; (6)..(6) Xaa at position 6 is alpha-MeF(2F); (10)..(10) Xaa at position 10 is 4Pal; (13)..(13) Xaa at position 13 is alpha-MeL; (16)..(16) Xaa at position 16 is Orn; MOD_RES (17)..(17) K at position 17 is chemically modified by conjugation of the epsilon-amino group of the K side chain with (2-[2-(2-amino-ethoxy)-ethoxy]-acetyl)2-(gamma-Glu)-CO-(CH2)16- CO2H; (20) [Peptide 4]
[hGIPR/hGLP1R] EC50 Ratio: 4.22

Y-Aib-EGT-αMeF(2F)-TSD-4Pal-SI-αMeL-LD-Orn-K((2-[2-(2-Amino-ethoxy)-ethoxy]-acetyl)2-(γGlu)-CO—(CH2)16—CO2H)AQ-Aib-TFI-(D-Glu)-αMeY-LIEGGPSSGAPPPS-NH2 (YXEGTXTSDXSIXLDXKAQXTFIXXLIEGGPSSGAPPPS; Aib, 4Pal, Orn, αMe residues, lipidated Lys, D-Glu, amide; (2)..(2) Xaa at position 2 is Aib; (6)..(6) Xaa at position 6 is alpha-methyl-Phe(2F); (10)..(10) Xaa at position 10 is 4Pal; (13)..(13) Xaa at position 13 is alpha-methyl-Leu; (16)..(16) Xaa at position 16 is Orn; MOD_RES (17)..(17) Lys at position 17 is chemically modified by conjugation of the epsilon-amino group of the Lys side chain with (2-[2-(2-amino-ethoxy)-ethoxy]-acetyl)2-(gamma-Glu)-CO-) [Peptide 239]
[hGIPR/hGLP1R] EC50 Ratio: 5.34

Y-Aib-EGT-αMeF(2F)-TSD-4Pal-SI-αMeL-LD-Orn-K((2-[2-(2-Amino-ethoxy)-ethoxy]-acetyl)2-(εK)-CO—(CH2)18—CO2H)AQ-Aib-AFI-(D-Glu)-αMeY-LIEGGPSSGAPPPS-NH2 (YXEGTXTSDXSIXLDXKAQXAFIXXLIEGGPSSGAPPPS; Aib, 4Pal, Orn, αMe residues, lipidated Lys, D-Glu, amide; (2)..(2) Xaa at position 2 is Aib; (6)..(6) Xaa at position 6 is alpha-methyl-Phe(2F); (10)..(10) Xaa at position 10 is 4Pal; (13)..(13) Xaa at position 13 is alpha-methyl-Leu; (16)..(16) Xaa at position 16 is Orn; MOD_RES (17)..(17) Lys at position 17 is chemically modified by conjugation of the epsilon-amino group of the Lys side chain with (2-[2-(2-amino-ethoxy)-ethoxy]-acetyl)2-(epsilon-Lys)-C) [Peptide 251]
[hGIPR/hGLP1R] EC50 Ratio: 3.74
